Results reported in article PMC4006704.

Tests used:
[1] = biological target: GST-Med19 (Drosophila melanogaster) (UniProt Q9VVL6); test: pull-down; 35S-labelled Hox / homeodomain peptides on immobilised GST-Med19 (Figures 1E, S2)
[2] = biological target: multiple GST-Hox proteins (Drosophila melanogaster); test: pull-down; 35S-labelled Med19 (full length or deleted versions) probing immobilised GST-Hox fusions or GST-HDAntp; standard conditions, essentially as in ref. 68 (Figures 1A, 5A)

Molecule | percent of input bound [1] | percent of input bound [2]
HD region of Drosophila Ubx, with its hexapeptide (HX), linker region and HD (wild-type) (domain or fragment) | 7 % of input | –
HD region of crustacean Artemia Ubx (linker-shortened C-terminal region) (domain or fragment) | 5 % of input | –
35S-labelled full-length Med19 (Mediator complex subunit 19) (natural protein, 35S-labelled) MMSNYGNMMDSPKSSPHGGGRSPVVARQDSSGTLKTTISLGKTPTIIHTGPFYSMKEPPAKAELTGDKDLMTEYGLHHTLTKFKEKKFKESLASFLQNIPGINDLITHPVENSTLRSVIEKPPIGGKELLPLTPVQLAGFRLHPGPLPEQYRTTYVTPARKHKNKHKKQKHKDGVTTGQESTLLDSAGLETYEKKHKKQKRHEDDKERKKRKKEKKRKKKNQSPEPGVGLLPGGASLGGAAGVMGATSLGSLGGGPGGPGLSSLSASMGPGVVGNMNSFSSSMQMQQQQQMPMQQQQMSSGGLLGSVLGTSGGPGGGGGGGGGGGGGVGGSLLMSQF | – | > 5 % of input
